Data: patent publication US11814447B2, “Peptide ligands for binding to EphA2” (BICYCLERD LIMITED, priority 2018, dated 2023)
Starred links: 1 amine or outer side, 2 acyl side, 3 side chain; linkers in the order of their positions; H or OH if unused. Positions of bridges follow the written chain, without caps; N, C: chain ends. Non-standard residues stand in square brackets, D forms with d. No end group written: not given here. 1Nal = N[C@@H](Cc1cccc2ccccc12)C(=O)O; TBMB = c1c(C[*:1])cc(C[*:3])cc1C[*:2]; hArg = N=C(N)NCCCC[C@H](N)C(=O)O; Tle = CC(C)(C)[C@H](N)C(=O)O; Aib = CC(C)(N)C(=O)O; βAla = NCCC(=O)O; Sar = CNCC(=O)O

Key:
[1] = target: Human EphA2 (Ecto) (Human) (UniProt P29317); test: FP competition, tracer Compound 18
[2] = target: T1, Human EphA2 (Ecto), C-terminal polyHis (Human, UniProt P29317 24-537); test: fluorescence polarisation competition; competitor fluorescent Compound 66
T1 construct: extracellular domain; also called EPH receptor A2; ephrin type-A receptor 2
Description: (§1) Peptides without a fluorescent tag were tested in competition with a peptide with a fluorescent tag and a known Kd (Table 2). Peptides were diluted to an appropriate concentration in assay buffer as described in the direct binding assay with a maximum of 5% DMSO, then serially diluted 1 in 2. […] Measurements were conducted as for the direct binding assay, however the gain was determined prior to the first measurement. Data analysis was in Systat Sigmaplot version 12.0 where the mP values were fit to a user defined cubic equation to generate a Ki value: […]

[3] = target: T1, Human EphA2 (Ecto), C-terminal polyHis; test: fluorescence polarisation competition; competitor fluorescent Compound 18
Description: as §1

Human EphA2 (Ecto) (Human), sequence (P29317 24-537): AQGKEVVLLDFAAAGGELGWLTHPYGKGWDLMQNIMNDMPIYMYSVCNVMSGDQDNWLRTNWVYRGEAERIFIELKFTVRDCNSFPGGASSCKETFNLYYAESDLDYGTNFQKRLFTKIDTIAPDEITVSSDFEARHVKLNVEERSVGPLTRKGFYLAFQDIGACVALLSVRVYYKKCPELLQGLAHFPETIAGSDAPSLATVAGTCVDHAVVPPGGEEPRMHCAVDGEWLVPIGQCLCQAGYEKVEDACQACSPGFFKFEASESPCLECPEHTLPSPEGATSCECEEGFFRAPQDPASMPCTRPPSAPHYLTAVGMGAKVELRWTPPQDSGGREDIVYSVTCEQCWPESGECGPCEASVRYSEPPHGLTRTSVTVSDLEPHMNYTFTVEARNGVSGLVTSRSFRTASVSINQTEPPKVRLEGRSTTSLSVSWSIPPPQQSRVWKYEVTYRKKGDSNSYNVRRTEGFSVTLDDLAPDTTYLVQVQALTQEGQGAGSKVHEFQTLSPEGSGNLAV
T1 sequence (P29317 24-537): as above

Binder | Ki [1] | Ki [2] | Ki [3]
Ac-[Sar][Sar]A[dD]VTCP[1Nal]G[Aib]F[1Nal]CP[Tle]N[hArg]PGC (linker 7-14-21 via TBMB) [Bicycle Compound 182] | 1.16 nM | – | –
Ac-[Sar][Sar]A[dD]VTCP[1Nal]G[Aib]F[1Nal]CP[Tle]NR[Aib]GC (linker 7-14-21 via TBMB) [Bicycle Compound 183] | 1.02 nM | – | –
Ac-[Sar][Sar]A[dD]VTCP[1Nal]G[Aib]F[1Nal]CP[Tle]N[hArg]P[dD]C (linker 7-14-21 via TBMB) [Bicycle Compound 184] | 1.19 nM | – | –
Ac-[Sar][Sar]A[dH]DVPCP[1Nal]G[Aib]F[1Nal]CP[Tle]N[hArg]PGC (linker 8-15-22 via TBMB) [Bicycle Compound 231] | 1.93 nM | – | –
Ac-[Sar][Sar]A[dH]DVPCP[1Nal]G[Aib]F[1Nal]CP[Tle]NR[Aib]GC (linker 8-15-22 via TBMB) [Bicycle Compound 232] | 0.9 nM | – | –
[βAla][Sar][Sar][Sar][Sar][Sar][Sar][Sar][Sar][Sar][Sar]H[dD]VPC[Aib][1Nal]G[Aib]F[1Nal]CP[Tle]NRPGC (linker 16-23-30 via TBMB) [Bicycle Compound 234] | 3.94 nM | – | –
[βAla][Sar][Sar][Sar][Sar][Sar][Sar][Sar][Sar][Sar][Sar]H[dD]VPC[Aib][1Nal]G[Aib]F[1Nal]CP[Tle]N[hArg]PGC (linker 16-23-30 via TBMB) [Bicycle Compound 235] | 2.58 nM | – | –
[βAla][Sar][Sar][Sar][Sar][Sar][Sar][Sar][Sar][Sar][Sar]H[dD]VPC[Aib][1Nal]G[Aib]F[1Nal]CP[Tle]N[hArg][Aib][dD]C (linker 16-23-30 via TBMB) [Bicycle Compound 238] | 2.83 nM | – | –
[βAla][Sar][Sar][Sar][Sar][Sar][Sar][Sar][Sar][Sar][Sar]H[dD]VPC[Aib][1Nal]G[Aib]F[1Nal]CP[Tle]NR[Aib]GC (linker 16-23-30 via TBMB) [Bicycle Compound 239] | 4.91 nM | – | –
[βAla][Sar][Sar][Sar][Sar][Sar][Sar][Sar][Sar][Sar][Sar]H[dD]VPC[Aib][1Nal]G[Aib]FWCP[Tle]N[hArg]P[dD]C (linker 16-23-30 via TBMB) [Bicycle Compound 242] | 7.77 nM | – | –
[βAla][Sar][Sar][Sar][Sar][Sar][Sar][Sar][Sar][Sar][Sar]H[dD]VPC[Aib][1Nal]GP[hArg][1Nal]CP[Tle]NR[Aib]GC (linker 16-23-30 via TBMB) [Bicycle Compound 243] | 2.83 nM | – | –
[βAla][Sar][Sar][Sar][Sar][Sar][Sar][Sar][Sar][Sar][Sar]H[dD]VPC[Aib][1Nal]GP[hArg][1Nal]CP[Tle]N[hArg]P[dD]C (linker 16-23-30 via TBMB) [Bicycle Compound 244] | 2.8 nM | – | –
[βAla][Sar][Sar][Sar][Sar][Sar][Sar][Sar][Sar][Sar][Sar]H[dD]VPC[Aib]WGP[hArg]WCP[Tle]N[hArg]P[dD]C (linker 16-23-30 via TBMB) [Bicycle Compound 246] | 31.4 nM | – | –
[βAla][Sar][Sar][Sar][Sar][Sar][Sar][Sar][Sar][Sar][Sar]H[dD]VPC[Aib]WGP[hArg]WCP[Tle]N[hArg]P[dD]C (linker 16-23-30 via TBMB) [Bicycle Compound 247] | 29.7 nM | – | –
[βAla][Sar][Sar][Sar][Sar][Sar][Sar][Sar][Sar][Sar][Sar]H[dD]VPC[dA][1Nal]G[Aib]F[1Nal]CP[Tle]N[hArg]P[dD]C (linker 16-23-30 via TBMB) [Bicycle Compound 248] | 28.4 nM | – | –
[βAla][Sar][Sar][Sar][Sar][Sar][Sar][Sar][Sar][Sar][Sar]H[dD]VPCP[1Nal]G[Aib][hArg][1Nal]CP[Tle]NR[Aib]GC (linker 16-23-30 via TBMB) [Bicycle Compound 249] | 1.38 nM | – | –
[βAla][Sar][Sar][Sar][Sar][Sar][Sar][Sar][Sar][Sar][Sar]H[dD]VPCP[1Nal]G[Aib][hArg][1Nal]CP[Tle]NR[Aib][dD]C (linker 16-23-30 via TBMB) [Bicycle Compound 250] | 1.48 nM | – | –
[βAla][Sar][Sar][Sar][Sar][Sar][Sar][Sar][Sar][Sar][Sar]H[dD]VPCP[1Nal]G[Aib][hArg][1Nal]CP[Tle]N[hArg]P[dD]C (linker 16-23-30 via TBMB) [Bicycle Compound 251] | 1.93 nM | – | –

Binder | Ki [1] | Ki [2] | Ki [3]
[βAla][Sar][Sar][Sar][Sar][Sar][Sar][Sar][Sar][Sar][Sar]H[dD]VPCP[1Nal]G[Aib]F[1Nal]CP[Tle]NRPGC (linker 16-23-30 via TBMB) [Bicycle Compound 252] | 0.37 nM | – | –
Ac-[Sar][Sar]H[dD]VPCP[1Nal]G[Aib]F[1Nal]CP[Tle]N[hArg]PGC (linker 7-14-21 via TBMB) [Bicycle Compound 253] | 0.85 nM | – | –
[βAla][Sar][Sar][Sar][Sar][Sar][Sar][Sar][Sar][Sar][Sar]H[dD]VPCP[1Nal]G[Aib]F[1Nal]CP[Tle]N[hArg]PGC (linker 16-23-30 via TBMB) [Bicycle Compound 257] | 1.07 nM | – | –
[βAla][Sar][Sar][Sar][Sar][Sar][Sar][Sar][Sar][Sar][Sar]H[dD]VPCP[1Nal]G[Aib]F[1Nal]CP[Tle]N[hArg][Aib][dD]C (linker 16-23-30 via TBMB) [Bicycle Compound 259] | 0.91 nM | – | –
[Sar][Sar]ACP[1Nal]G[Aib]FWCPV[dA]RPGC (linker 4-11-18 via TBMB, also called Sar2-ACP(1Nal)G(Aib)FWCPV(D-Ala)RPGC) [Bicycle Compound Number 127 (TBMB scaffold)] | – | 33 nM | 40 nM
[Sar][Sar]ACP[1Nal]G[Aib]FWCPVNRP[dA]C (linker 4-11-18 via TBMB) [Bicycle Compound Number 128 (TBMB scaffold)] | – | 16 nM | 15 nM
[Sar][Sar]ACP[1Nal]GPF[1Nal]CPVNRPGC (linker 4-11-18 via TBMB, also called Compound 120) [Bicycle Compound Number 120 (TBMB scaffold)] | – | 0.98 nM | 1.4 nM
[Sar][Sar]ACP[1Nal]GPFWCP[Tle]NRPGC (linker 4-11-18 via TBMB, also called Sar2-ACP(1Nal)GPFWCP(tBuGly)NRPGC) [Bicycle Compound Number 121 (TBMB scaffold)] | – | 2 nM | 3.65 nM
[Sar][Sar]ACP[1Nal]GPFWCP[Tle][dA]RPGC (linker 4-11-18 via TBMB, also called Sar2-ACP(1Nal)GPFWCP(tBuGly)(D-Ala)RPGC) [Bicycle Compound Number 129 (TBMB scaffold)] | – | 15 nM | 23 nM
[Sar][Sar]ACP[1Nal]GPFWCP[Tle]NRP[dA]C (linker 4-11-18 via TBMB, also called Sar2-ACP(1Nal)GPFWCP(tBuGly)NRP(D-Ala)C) [Bicycle Compound Number 132 (TBMB scaffold)] | – | 8.7 nM | 7.7 nM
[Sar][Sar]ACP[1Nal]GPFWCPVN[hArg]PGC (linker 4-11-18 via TBMB, also called Compound 122) [Bicycle Compound Number 122 (TBMB scaffold)] | – | 8 nM | 9.55 nM
[Sar][Sar]ACP[1Nal]GPFWCPV[dA][hArg]PGC (linker 4-11-18 via TBMB, also called Sar2-ACP(1Nal)GPFWCPV(D-Ala)(HArg)PGC) [Bicycle Compound Number 133 (TBMB scaffold)] | – | 3.7 nM | 14 nM
[Sar][Sar]ACP[1Nal]GPFWCPVN[hArg]P[dA]C (linker 4-11-18 via TBMB) [Bicycle Compound Number 134 (TBMB scaffold)] | – | 6.15 nM | 1.2 nM
[Sar][Sar]ACPWG[Aib]F[1Nal]CPVNRPGC (linker 4-11-18 via TBMB) [Bicycle Compound Number 123 (TBMB scaffold)] | – | 46 nM | 63 nM
[Sar][Sar]ACP[1Nal]G[Aib]FWCP[Tle]NRPGC (linker 4-11-18 via TBMB, also called Sar2-ACP(1Nal)G(Aib)FWCP(tBuGly)NRPGC) [Bicycle Compound Number 126 (TBMB scaffold)] | – | 19 nM | 15 nM
[Sar][Sar]ACP[1Nal]GPFWCP[Tle]NR[Aib]GC (linker 4-11-18 via TBMB, also called Sar2-ACP(1Nal)GPFWCP(tBuGly)NR(Aib)GC) [Bicycle Compound Number 131 (TBMB scaffold)] | – | 6.8 nM | 11 nM
AEGLPCPWGPFWCPVNRPGCA (linker 6-13-20 via TBMB (inferred), also called Compound 55) [Bicycle Compound Number 55 (TBMB scaffold)] | – | 6.15 nM | 11.3 nM
ADVHCPWGPFWCPVNRPGCA (linker 5-12-19 via TBMB (inferred), also called Compound 57) [Bicycle Compound Number 57 (TBMB scaffold)] | – | 1.2 nM | 0.48 nM
